Test results from patent US20240417437A1, “Linker Polypeptides” (Trutino Biosciences Inc., priority 2021, published 2024).

How the values were obtained:
B16F10 melanoma cells [1] = assay: Tumor lysate levels of full-length fusion protein (ELISA), IL-2 and IFN-γ (Luminex), B16F10 study; format: in vivo, C57BL/6 mice; conditions: tumor lysate 24 hours after last dose
Experimental: An ELISA assay was developed to detect and quantify prodrug fusion proteins comprising IL-2 and IL-2Ra moieties. Wells of a 96-well plate were coated overnight with 100 μL of a rat anti-mouse IL-2 monoclonal antibody (JES6-1A12; ThermoFisher) at […] in PBS. After washing, wells are blocked with TBS/0.05% Tween 20/1% BSA, then fusion proteins and/or unknown biological samples were added for 1 hour at room temperature. After washing, an anti-mouse IL-2Ra biotin-labelled detection antibody (BAF2438, R&D systems) was added and binding was detected using Ultra Strepavidin HRP (ThermoFisher). The ELISA plate was developed by adding the chromogenic tetramethylbenzidine substrate (Ultra TMB, ThermoFisher). The reaction was stopped by addition of 0.5 M H2SO4, and the absorbance was read at 450-650 nm.
The levels of full-length IL-2-IL-2Ra fusion proteins, IL-2, and IFN-7 were quantified in tumor samples collected during a pre-clinical efficacy study comparing a panel of retention linker IL-2 fusion drugs (see Example 10).
Tumors (n=3 per group) were collected 24 hours after the last dose injection, flash frozen, and stored at −80° C. until further processing. Tumor lysates were generated using tissue extraction reagent (ThermoFisher) supplemented with protease and phosphatase inhibitors. Standard techniques and protein concentrations were determined using the BCA assay (Pierce). […]

B16F10 melanoma cells [2] = assay: B16F10 melanoma tumor growth inhibition study; format: in vivo; conditions: 20 mg/kg IV Q3D, 5 doses, B16F10 in C57BL/6 mice
Experimental: C57BL/6 mice were subcutaneously inoculated with B16F10 melanoma cells and when the average tumor volume reached on average 70-90 mm^3, animals were randomized into 6 groups based on tumor volumes (n=8 mice per treatment group). Mice were dosed intravenously every 3 days (Q3D) for a total of 5 doses according to Table 7.
Tumor volumes were measured twice a week for the duration of the study. […] On day 14, animals were sacrificed, and tissues and blood (processed to serum) were collected 24 hours post final dose (dose #5) and stored at −80° C. until further testing.

[3] = Link_TGS6; cited from earlier work
[4] = tested on: EMT6 breast cancer syngeneic model; assay: Real-time whole-body imaging of Dylight 650 labelled IL-2 fusion proteins in tumors; format: in vivo; conditions: 8 mg/kg IV once, each time-point over 96 hours, EMT6 tumor-bearing BALB/c mice
Experimental: The levels of IL-2 fusion proteins present in tumors in vivo were assessed by utilizing fluorescently labelled proteins and real-time whole-body imaging. Non-cleavable Construct GGG and Construct DD were conjugated to Dylight 650 probe according to the manufacturer's protocol (Dylight 650 Antibody labeling kit, ThermoFisher). […] BALB/c mice were subcutaneously inoculated with EMT6 breast cancer syngeneic model, and when the average tumor volume reached 240 mm^3, animals were randomized into 3 groups based on tumor volumes (n=2 mice per treatment group).
Following administration of a single dose of the labeled IL-2 fusion proteins to tumor-bearing mice, fluorescent images (excitation 640/emission 680 consistent with Dylight 650 probe ex/em spectra) were captured over 96 hours on an IVIS system (PerkinElmer, IVIS Lumina Series III) and are shown in FIG. 5A. The fluorescence intensity in tumor areas was quantified across the groups, average background tumor fluorescence (group 1) was subtracted from group 2 and 3 values at each time-point, and data were normalized to the initial fluorescence intensity of same amount of each labeled protein. […] This signifies next generation retention linker Construct DD accumulated and was retained in tumors at 2-fold higher levels compared to IL-2 fusion protein Construct GGG, lacking any targeting sequence.

B1: Construct III: mIL2-VRIQRKKEKMKET-MMPcs1-GGSKLWVLPKGS-mIL2Ra-muIgG1Fc; hep/col IV (protein)
chain: APTSSSTSSSTAEAQQQQQQQQQQQQHLEQLLMDLQELLSRMENYRNLKLPRMLTFKFYLPKQATELKDLQCLEDELGPLRHVLDLTQSKSFQLEDAENFISNIRVTVVKLKGSDNTFECQFDDESATVVDFLRRWIAFCQSIISTSPQVRIQRKKEKMKETGPLGVRGGGSKLWVLPKGSELCLYDPPEVPNATFKALSYKNGTILNCECKRGFRRLKELVYMRCLGNSWSSNCQCTSNSHDKSRKQVTAQLEHQKEQQTTTDMQKPTQSMHQENLTGHCREPPPWKHEDSKRIYHFVEGQSVHYECIPGYKALQRGPAISICKMKCGKTGWTQPQLTCVDEREHHRFLASEESQGSRNSSPESETSCPITTTDFPQPTETTAMTETFVLTMEYKGCKPCICTVPEVSSVFIFPPKPKDVLTITLTPKVTCVVVDISKDDPEVQFSWFVDDVEVHTAQTQPREEQFNSTFRSVSELPIMHQDWLNGKEFKCRVNSAAFPAPIEKTISKTKGRPKAPQVYTIPPPKEQMAKDKVSLTCMITDFFPEDITVEWQWNGQPAENYKNTQPIMDTDGSYFVYSKLNVQKSNWEAGNTFTCSVLHEGLHNHHTEKSLSHSPGK
modifications: Synthetic: Construct III
notes: mIL2-…-MMPcs1-…-mIL2Ra-muIgG1Fc; hep/col IV
levels of IFN-7 in tumors (B16F10 melanoma cells [1]): enhanced | IL-2 intratumoral levels (B16F10 melanoma cells [1]; compared to other arms): highest | tumor growth inhibition (TGI) (B16F10 melanoma cells [2]): 83.5%

B2: 641 (protein)
chain: GVYHREARSGKYKLTYAEAKAVCEFEGGHLATYKGLEAARKIGFHVCAAGWMAKGRVGYPIVKPGPPNCGFGKTGIIDYGIRLNRSERWDAYCYNPHA
modifications: Synthetic: hyaluronic acid; pH dependent (Link_TGS6)
Note 2: pH dependence of binding to hyaluronic acid [3]: binds better at lower pH

B3: Construct DD: mIL2-2x(GHHPH)-MMPscr-2x(G4S)-mIL2Ra(1-215)-muIgG1Fc; pH heparin (protein)
chain: APTSSSTSSSTAEAQQQQQQQQQQQQHLEQLLMDLQELLSRMENYRNLKLPRMLTFKFYLPKQATELKDLQCLEDELGPLRHVLDLTQSKSFQLEDAENFISNIRVTVVKLKGSDNTFECQFDDESATVVDFLRRWIAFCQSIISTSPQGHHPHGHHPHGVRLGPGGGGGSGGGGSELCLYDPPEVPNATFKALSYKNGTILNCECKRGFRRLKELVYMRCLGNSWSSNCQCTSNSHDKSRKQVTAQLEHQKEQQTTTDMQKPTQSMHQENLTGHCREPPPWKHEDSKRIYHFVEGQSVHYECIPGYKALQRGPAISICKMKCGKTGWTQPQLTCVDEREHHRFLASEESQGSRNSSPESETSCPITTTDFPQPTETTAMTETFVLTMEYKGCKPCICTVPEVSSVFIFPPKPKDVLTITLTPKVTCVVVDISKDDPEVQFSWFVDDVEVHTAQTQPREEQFNSTFRSVSELPIMHQDWLNGKEFKCRVNSAAFPAPIEKTISKTKGRPKAPQVYTIPPPKEQMAKDKVSLTCMITDFFPEDITVEWQWNGQPAENYKNTQPIMDTDGSYFVYSKLNVQKSNWEAGNTFTCSVLHEGLHNHHTEKSLSHSPGK
modifications: Synthetic: Construct DD
notes: mIL2-2x(GHHPH)-MMPscr-2x(G4S)-mIL2Ra(1-215)-muIgG1Fc; pH heparin
tumor-associated fluorescence / level retained in tumors, fold higher compared to Construct GGG [4]: roughly 2 fold
